This note sets out measurements from US20190367620A1 (Merck KGaA, published 2019).

Holding throughout (test): SPR as in Example 1.8
The target of test [1] is T1, human FGFR1b-IIIb extracellular domain with a HIS tag (human).
T1 construct: also called huFGFR1b-IIIb; hFGFR1b-IIIb
T1 chain: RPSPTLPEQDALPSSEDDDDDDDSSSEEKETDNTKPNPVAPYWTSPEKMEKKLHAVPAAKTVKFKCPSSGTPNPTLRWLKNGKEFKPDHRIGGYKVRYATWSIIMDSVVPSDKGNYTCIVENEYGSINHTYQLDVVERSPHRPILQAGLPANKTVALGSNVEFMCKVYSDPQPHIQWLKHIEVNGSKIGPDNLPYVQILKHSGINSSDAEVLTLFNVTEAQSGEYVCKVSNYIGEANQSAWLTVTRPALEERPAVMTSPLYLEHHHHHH
The procedure, abridged:
(§1)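 Anti-FGFR1 mAb captured via immobilised anti-human Fc to ~200 RU; 2-fold dilutions of His-tagged FGFR1 (wild-type or HEK-expressed point mutants, Ala→Gly for native Ala) injected at 25° C in HBS-EP+. kon/koff from 1:1 Langmuir fit; KD = koff/kon.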

Test [2] has as its target T2, FGFR1 D2 point mutant K52A (human, UniProt P11362 22-254).
T2 chain: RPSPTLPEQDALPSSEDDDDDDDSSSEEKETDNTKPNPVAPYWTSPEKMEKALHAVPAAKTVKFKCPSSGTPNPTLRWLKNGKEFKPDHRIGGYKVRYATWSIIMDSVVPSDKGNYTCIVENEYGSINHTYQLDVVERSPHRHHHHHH
The procedure, abridged: as §1

For test [3], the target named is T3, FGFR1 D2 point mutant L53A (human, UniProt P11362 22-254).
T3 chain: T2 chain with A52K, L53A
The procedure, abridged:
as §1

For test [4], the target named is T4, FGFR1 D2 point mutant P57A (human, UniProt P11362 22-254).
T4 chain: T2 chain with A52K, P57A
The procedure, abridged: as §1

For test [5], the target named is T5, FGFR1 D2 point mutant A58G (human, UniProt P11362 22-254).
T5 chain: T2 chain with A52K, A58G
The essentials: as §1

The target in test [6] is T6, FGFR1 D2 point mutant K65A (human, UniProt P11362 22-254).
T6 chain: T2 chain with A52K, K65A
The procedure, abridged: as §1

Test [7] concerns the target T7, FGFR1 D2 point mutant V96A (human, UniProt P11362 22-254).
T7 chain: T2 chain with A52K, V96A
The essentials: as §1

For test [8], the target named is T8, FGFR1 D2 point mutant R97A (human, UniProt P11362 22-254).
T8 chain: T2 chain with A52K, R97A
The procedure, abridged:
as §1

Test [9] addresses T9, FGFR1 D2 point mutant Y98A (human, UniProt P11362 22-254).
T9 chain: T2 chain with A52K, Y98A
The essentials: as §1

For test [10], the target named is T10, FGFR1 D2 point mutant A99G (human, UniProt P11362 22-254).
T10 chain: T2 chain with A52K, A99G
The procedure, abridged:
as §1

A word on the Kd: it is the free concentration of one partner at which half of the binding sites on the other are occupied at equilibrium, for simple one-to-one binding.

Residue numbers refer to the chain shown, from its start.

B1: mAb #A08 (antibody, V domains shown)
VH: EVQLQESGPGLVKPSGTLSLTCAVSGGSISSNNWWSWVRQPPGKGLEWIGEIYHSGSTSYNPSLKSRVTISVDKSKNQFSLKLNSVTAADTAVYYCARGTDWFDPWGQGTLVTVSS
VL: QAVLTQPPSVSVAPGQTARITCGGNNIGSESVHWYQQKPGQAPVLVVYDDSDRPSGIPERFSGSNSGNTATLTISRVEAGDEADYYCQVWDSTSDHRVFGGGTKLTVL
notes: Only variable domains are tied to the name mAb #A08 (hit); also called #A08 hit; mAb #08
For B1, the Kd in [1] was determined as 0.47 nM; in [2], 0.23 nM; in test [3], 0.29 nM; in [4], 0.41 nM; in test [5], 2.2 nM; in test [6] it was 0.18 nM. The dissociation constant Kd in test [7] was found to be 0.19 nM; in test [8], 4.25 nM; in [9], 0.18 nM; in test [10], 0.18 nM.
